Assay results: the supplement of paper PMC11246515
± gives the standard deviation of the averaged measurements.

Experiment: total protein half-life in vivo (active degradation + dilution); higher = more stable protein
[1] = E. coli NCM3722 delta-clpP delta-lon delta-hslV, growth: N-lim chemostat, doubling time 6 h
[2] = E. coli NCM3722 delta-clpP, growth: N-lim chemostat, doubling time 6 h
[3] = E. coli NCM3722 delta-hslV, growth: N-lim chemostat, doubling time 6 h
[4] = E. coli NCM3722 delta-lon, growth: N-lim chemostat, doubling time 6 h
[5] = E. coli NCM3722 delta-smpB, growth: N-lim chemostat, doubling time 6 h
[6] = wild type E. coli NCM3722, growth: C-lim chemostat, doubling time 3 h
[7] = wild type E. coli NCM3722, growth: C-lim chemostat, doubling time 6 h
[8] = wild type E. coli NCM3722, growth: C-lim chemostat, doubling time 12 h
[9] = wild type E. coli NCM3722, growth: N-lim chemostat, doubling time 6 h
[10] = wild type E. coli NCM3722, growth: N-lim chemostat, doubling time 12 h
[11] = wild type E. coli NCM3722, growth: P-lim chemostat, doubling time 6 h
[12] = wild type E. coli NCM3722, growth: P-lim chemostat, doubling time 12 h

Sequence | total protein half-life in vivo [1] | total protein half-life in vivo [2] | total protein half-life in vivo [3] | total protein half-life in vivo [4] | total protein half-life in vivo [5] | total protein half-life in vivo [6] | total protein half-life in vivo [7] | total protein half-life in vivo [8] | total protein half-life in vivo [9] | total protein half-life in vivo [10] | total protein half-life in vivo [11] | total protein half-life in vivo [12]
MSLKEKTQSLFANAFGYPATHTIQAPGRVNLIGEHTDYNDGFVLPCAIDYQTVISCAPRDDRKVRVMAADYENQLDEFSLDAPIVAHENYQWANYVRGVVKHLQLRNNSFGGVDMVISGNVPQGAGLSSSASLEVAVGTVLQQLYHLPLDGAQIALNGQEAENQFVGCNCGIMDQLISALGKKDHALLIDCRSLGTKAVSMPKGVAVVIINSNFKRTLVGSEYNTRREQCETGARFFQQPALRDVTIEEFNAVAHELDPIVAKRVRHILTENARTVEAASALEQGDLKRMGELMAESHASMRDDFEITVPQIDTLVEIVKAVIGDKGGVRMTGGGFGGCIVALIPEELVPAVQQAVAEQYEAKTGIKETFYVCKPSQGAGQC [P0A6T3] | 5.59 ± 2 h | 6.35 h | 5.09 ± 1.2 h | 5.29 ± 0.75 h | 4.573 ± 0.04 h | 3.22 ± 0.53 h | 5.71 ± 0.33 h | 12.7 ± 2 h | 4.53 ± 0.13 h | 7.14 ± 0.81 h | 6.11 ± 0.1 h | 11.9 ± 0.71 h
MTSENPLLALREKISALDEKLLALLAERRELAVEVGKAKLLSHRPVRDIDRERDLLERLITLGKAHHLDAHYITRLFQLIIEDSVLTQQALLQQHLNKINPHSARIAFLGPKGSYSHLAARQYAARHFEQFIESGCAKFADIFNQVETGQADYAVVPIENTSSGAINDVYDLLQHTSLSIVGEMTLTIDHCLLVSGTTDLSTINTVYSHPQPFQQCSKFLNRYPHWKIEYTESTSAAMEKVAQAKSPHVAALGSEAGGTLYGLQVLERIEANQRQNFTRFVVLARKAINVSDQVPAKTTLLMATGQQAGALVEALLVLRNHNLIMTRLESRPIHGNPWEEMFYLDIQANLESAEMQKALKELGEITRSMKVLGCYPSENVVPVDPT [P0A9J8] | 5.3 ± 1.8 h | 4.03 ± 0.25 h | 4.9 ± 1.2 h | 4.67 ± 0.14 h | 4.1437 ± 0.0033 h | 2.62 ± 0.6 h | 5.375 ± 0.04 h | 11 ± 0.42 h | 4.129 ± 0.037 h | 6.55 ± 0.09 h | 5.88 ± 0.58 h | 11.77 ± 0.076 h
MPDAVQAPYPAYRPEPNMQTITIAPPKRSWFSLLSWAVVLAVLVVSWQGAEMAPLTLIKDGGNMATFAADFFPPDFSQWQDYLTEMAVTLQIAVWGTALAVVLSIPFGLMSAENLVPWWVYQPVRRLMDACRAINEMVFAMLFVVAVGLGPFAGVLACWRCLSTPPACSPSCFPKRWKRLSPARWKAFAPPVPTSSKRSSTACCHR [P0DP69] | – | – | – | – | – | – | – | – | – | – | 0.274 ± 0.32 h | 0.661 ± 0.64 h
MSHYHEQFLKQNPLAVLGVLRDLHKAAIPLRLSWNGGQLISKLLAITPDKLVLDFGSQAEDNIAVLKAQHITITAETQGAKVEFTVEQLQQSEYLQLPAFITVPPPTLWFVQRRRYFRISAPLHPPYFCQTKLADNSTLRFRLYDLSLGGMGALLETAKPAELQEGMRFAQIEVNMGQWGVFHFDAQLISISERKVIDGKNETITTPRLSFRFLNVSPTVERQLQRIIFSLEREAREKADKVRD | 5.94 ± 0.77 h | – | – | – | > 8 h | 1.21 ± 0.24 h | 1.87 ± 0.3 h | 2.88 ± 0.52 h | – | – | – | –
MATLIRLFIHPVKSMRGIGLTHALADVSGLAFDRIFMITEPDGTFITARQFPQMVRFTPSPVHDGLHLTAPDGSSAYVRFADFATQDAPTEVWGTHFTARIAPDAINKWLSGFFSREVQLRWVGPQMTRRVKRHNTVPLSFADGYPYLLANEASLRDLQQRCPASVKMEQFRPNLVVSGASAWEEDRWKVIRIGDVVFDVVKPCSRCIFTTVSPEKGQKHPAGEPLKTLQSFRTAQDNGDVDFGQNLIARNSGVIRVGDEVEILATAPAKIYGAAAADDTANITQQPDANVDIDWQGQAFRGNNQQVLLEQLENQGIRIPYSCRAGICGSCRVQLLEGEVTPLKKSAMGDDGTILCCSCVPKTALKLAR | 5.8 ± 0.31 h | 5.98 ± 1.1 h | 6.18 ± 1.1 h | 5.9 ± 0.56 h | 5.39 ± 0.28 h | 2.97 ± 0.61 h | 6.03 ± 0.76 h | 10.1 ± 0.74 h | 5.69 ± 0.15 h | 10.54 ± 0.032 h | 5.71 ± 0.41 h | 10.2 ± 1.8 h
MSDDMSMGLPSSAGEHGVLRSMQEVAMSSQEASKMLRTYNIAWWGNNYYDVNELGHISVCPDPDVPEARVDLAQLVKTREAQGQRLPALFCFPQILQHRLRSINAAFKRARESYGYNGDYFLVYPIKVNQHRRVIESLIHSGEPLGLEAGSKAELMAVLAHAGMTRSVIVCNGYKDREYIRLALIGEKMGHKVYLVIEKMSEIAIVLDEAERLNVVPRLGVRARLASQGSGKWQSSGGEKSKFGLAATQVLQLVETLREAGRLDSLQLLHFHLGSQMANIRDIATGVRESARFYVELHKLGVNIQCFDVGGGLGVDYEGTRSQSDCSVNYGLNEYANNIIWAIGDACEENGLPHPTVITESGRAVTAHHTVLVSNIIGVERNEYTVPTAPAEDAPRALQSMWETWQEMHEPGTRRSLREWLHDSQMDLHDIHIGYSSGIFSLQERAWAEQLYLSMCHEVQKQLDPQNRAHRPIIDELQERMADKMYVNFSLFQSMPDAWGIDQLFPVLPLEGLDQVPERRAVLLDITCDSDGAIDHYIDGDGIATTMPMPEYDPENPPMLGFFMVGAYQEILGNMHNLFGDTEAVDVFVFPDGSVEVELSDEGDTVADMLQYVQLDPKTLLTQFRDQVKKTDLDAELQQQFLEEFEAGLYGYTYLEDE | 4.96 ± 0.56 h | 4.38 ± 0.22 h | 4.3 ± 0.57 h | 4.28 ± 0.16 h | 3.97 ± 0.11 h | 2.872 ± 0.017 h | 5.43 ± 0.37 h | 9.85 ± 0.33 h | 3.93 ± 0.19 h | 5.91 ± 0.16 h | 5.54 ± 0.16 h | 11.5 ± 0.38 h
MAQQTPLYEQHTLCGARMVDFHGWMMPLHYGSQIDEHHAVRTDAGMFDVSHMTIVDLRGSRTREFLRYLLANDVAKLTKSGKALYSGMLNASGGVIDDLIVYYFTEDFFRLVVNSATREKDLSWITQHAEPFGIEITVRDDLSMIAVQGPNAQAKAATLFNDAQRQAVEGMKPFFGVQAGDLFIATTGYTGEAGYEIALPNEKAADFWRALVEAGVKPCGLGARDTLRLEAGMNLYGQEMDETISPLAANMGWTIAWEPADRDFIGREALEVQREHGTEKLVGLVMTEKGVLRNELPVRFTDAQGNQHEGIITSGTFSPTLGYSIALARVPEGIGETAIVQIRNREMPVKVTKPVFVRNGKAVA | 4.25 ± 0.29 h | 3.94 ± 0.048 h | 4.22 ± 0.35 h | 4.16 ± 0.17 h | 3.94 ± 0.068 h | 3.01 ± 0.22 h | 5.71 ± 0.81 h | 10.5 ± 0.62 h | 3.81 ± 0.2 h | 6.76 ± 0.92 h | 5.88 ± 0.12 h | 11.4 ± 0.68 h
